Results as given in patent publication US20030082745A1 (published 2003).

How the values were obtained:
[1] = target: T1, pol κ (primary protein product of POLK; DNA polymerase κ) (human, UniProt Q9UBT6 1-870); assay: yeast two-hybrid
T1 construct: Tested as a yeast two-hybrid fusion (FLAG-modified pGBT9 / pGAD424); also called DINB1 product
T1 sequence (looked up): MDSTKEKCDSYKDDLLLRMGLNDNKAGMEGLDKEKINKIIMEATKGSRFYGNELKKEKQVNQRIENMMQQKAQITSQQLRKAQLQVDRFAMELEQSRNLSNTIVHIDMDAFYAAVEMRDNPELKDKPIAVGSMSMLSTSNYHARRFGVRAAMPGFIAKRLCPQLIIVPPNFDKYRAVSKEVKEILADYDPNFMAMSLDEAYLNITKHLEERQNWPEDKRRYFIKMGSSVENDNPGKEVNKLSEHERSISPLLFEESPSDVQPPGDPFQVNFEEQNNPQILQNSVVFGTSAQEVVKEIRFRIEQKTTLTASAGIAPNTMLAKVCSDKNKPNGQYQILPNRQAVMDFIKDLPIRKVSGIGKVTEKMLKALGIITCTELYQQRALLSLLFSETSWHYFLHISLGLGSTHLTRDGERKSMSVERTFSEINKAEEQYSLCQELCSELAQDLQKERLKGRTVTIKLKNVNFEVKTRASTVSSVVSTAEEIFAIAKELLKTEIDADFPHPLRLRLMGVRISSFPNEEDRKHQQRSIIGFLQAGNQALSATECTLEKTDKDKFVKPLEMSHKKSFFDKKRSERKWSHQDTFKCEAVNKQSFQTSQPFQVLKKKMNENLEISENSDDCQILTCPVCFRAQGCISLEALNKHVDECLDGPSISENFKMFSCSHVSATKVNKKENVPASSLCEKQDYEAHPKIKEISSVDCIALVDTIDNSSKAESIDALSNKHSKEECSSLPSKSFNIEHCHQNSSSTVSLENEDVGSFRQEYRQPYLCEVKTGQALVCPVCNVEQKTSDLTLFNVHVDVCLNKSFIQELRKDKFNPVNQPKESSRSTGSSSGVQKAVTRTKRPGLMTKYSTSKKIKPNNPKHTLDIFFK

[2] = target: T2, pol κ76 (76 kDa alternatively spliced isoform product of POLK) (human, UniProt Q9UBT6 1-870); assay: yeast two-hybrid
T2 construct: Tested as a yeast two-hybrid fusion (FLAG-modified pGBT9 / pGAD424); also called 76-kDa pol κ isoform
T2 sequence: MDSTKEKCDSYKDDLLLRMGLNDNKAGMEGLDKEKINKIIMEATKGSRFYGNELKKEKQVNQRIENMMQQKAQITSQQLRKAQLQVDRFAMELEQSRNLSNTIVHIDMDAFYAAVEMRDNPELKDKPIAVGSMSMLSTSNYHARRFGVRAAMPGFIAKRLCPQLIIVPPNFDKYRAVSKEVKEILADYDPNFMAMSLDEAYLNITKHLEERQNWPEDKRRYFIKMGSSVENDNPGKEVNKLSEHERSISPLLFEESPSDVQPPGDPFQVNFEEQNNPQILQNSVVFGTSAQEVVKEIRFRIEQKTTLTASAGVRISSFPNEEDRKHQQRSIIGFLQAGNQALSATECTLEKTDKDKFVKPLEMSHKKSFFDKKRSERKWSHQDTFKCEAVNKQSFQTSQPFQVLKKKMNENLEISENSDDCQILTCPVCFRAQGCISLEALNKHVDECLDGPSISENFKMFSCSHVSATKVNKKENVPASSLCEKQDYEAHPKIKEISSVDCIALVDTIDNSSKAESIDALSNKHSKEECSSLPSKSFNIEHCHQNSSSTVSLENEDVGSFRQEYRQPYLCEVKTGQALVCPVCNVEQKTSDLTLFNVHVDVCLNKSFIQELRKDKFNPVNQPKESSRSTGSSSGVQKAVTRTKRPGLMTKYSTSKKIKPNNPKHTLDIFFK

| Binder | binding result [1] | binding result [2] |
| --- | --- | --- |
| GPBP (Goodpasture antigen binding protein) (enzyme, UniProt Q9Y5P4 1-624, looked up, Two-hybrid construct (fusion domain, limits, species) is not described; also called product of COL4A3BP) MSDNQSWNSSGSEEDPETESGPPVERCGVLSKWTNYIHGWQDRWVVLKNNALSYYKSEDETEYGCRGSICLSKAVITPHDFDECRFDISVNDSVWYLRAQDPDHRQQWIDAIEQHKTESGYGSESSLRRHGSMVSLVSGASGYSATSTSSFKKGHSLREKLAEMETFRDILCRQVDTLQKYFDACADAVSKDELQRDKVVEDDEDDFPTTRSDGDFLHSTNGNKEKLFPHVTPKGINGIDFKGEAITFKATTAGILATLSHCIELMVKREDSWQKRLDKETEKKRRTEEAYKNAMTELKKKSHFGGPDYEEGPNSLINEEEFFDAVEAALDRQDKIEEQSQSEKVRLHWPTSLPSGDAFSSVGTHRFVQKPYSRSSSMSSIDLVSASDDVHRFSSQVEEMVQNHMTYSLQDVGGDANWQLVVEEGEMKVYRREVEENGIVLDPLKATHAVKGVTGHEVCNYFWNVDVRNDWETTIENFHVVETLADNAIIIYQTHKRVWPASQRDVLYLSVIRKIPALTENDPETWIVCNFSVDHDSAPLNNRCVRAKINVAMICQTLVSPPEGNQEISRDNILCKITYVANVNPGGWAPASVLRAVAKREYPKFLKRFTSYVQEKTAGKPILF | no binding | no binding |
| GPBPΔ26 (Goodpasture antigen binding protein alternatively spliced product deleted for 26 amino acid residues) (enzyme, Splice isoform of the entry named (26 residues deleted); Two-hybrid construct not described; also called GPBPΔ26) MSDNQSWNSSGSEEDPETESGPPVERCGVLSKWTNYIHGWQDRWVVLKNNALSYYKSEDETEYGCRGSICLSKAVITPHDFDECRFDISVNDSVWYLRAQDPDHRQQWIDAIEQHKTESGYGSESSLRRHGSMVSLVSGASGYSATSTSSFKKGHSLREKLAEMETFRDILCRQVDTLQKYFDACADAVSKDELQRDKVVEDDEDDFPTTRSDGDFLHSTNGNKEKLFPHVTPKGINGIDFKGEAITFKATTAGILATLSHCIELMVKREDSWQKRLDKETEKKRRTEEAYKNAMTELKKKSHFGGPDYEEGPNSLINEEEFFDAVEAALDRQDKIEEQSQSEKVRLHWPTSLPSGDAFSSVGTHRFVQKVEEMVQNHMTYSLQDVGGDANWQLVVEEGEMKVYRREVEENGIVLDPLKATHAVKGVTGHEVCNYFWNVDVRNDWETTIENFHVVETLADNAIIIYQTHKRVWPASQRDVLYLSVIRKIPALTENDPETWIVCNFSVDHDSAPLNNRCVRAKINVAMICQTLVSPPEGNQEISRDNILCKITYVANVNPGGWAPASVLRAVAKREYPKFLKRFTSYVQEKTAGKPILF | no binding | no binding |
